The source of these data is patent US7960140B2, “Avidin mutants” (Orion Diagnostica Oy, priority 2003, dated 2011).

A short description of data set [1]: Dissociation assay with fluorescent biotin conjugate (ArcDia BF560). Format: binding. Particulars: for Release 1 h / t1/4 (time point of 25% release) / kdiss: 23 ± 1° C.; for Release 1 h: 100-fold molar excess of free biotin; for t1/4 (time point of 25% release): determined directly from the measured data; for kdiss: one-phase dissociation model. On the procedure: The biotin-binding properties of produced mutagenised dcAvds were analysed by method based on the quenching of biotin-coupled fluorescent probe ArcDia BF560 (ArcDia Ltd., Turku, Finland) due to binding to avidin (FIG. 4). PerkinElmer LS55 luminometer was used for measurements. […] The spectra of 50 nM biotin-Bf560 solution in 50 mM Na-phosphate containing 650 mM NaCl was measured (red). Chicken avidin (Belovo S. A., Bastogne, Belgium) was added to final subunit concentration of 83 nM and green spectra was obtained.
Briefly, 50 nM free biotin-Bf560 solution in 50 mM Na-phosphate containing 650 mM NaCl was measured using excitation at 560 nm (2.5 nm slit) and emission was collected at 578 nm (5 nm slit). Continuous stirring (setting low) was used throughout the analysis. After 100 sec measurement, the protein under study was added to final biotin-binding subunit concentration 50 nM and the measurement was continued for 500 sec. […]
A one-phase dissociation model was used to analyse the data, as described elsewhere (Hytönen et al., (2004) Biochem J, in press). The dissociation rate constant (kdiss) was determined by fitting the equation −kdisst=ln(B/Bo) to the data. Bo is the measured maximum binding (100%) determined as the difference between the fluorescence of the free dye and the fluorescence of the protein-dye complex, and B is the amount of complex measured as a function of time. The first 500 seconds were omitted from the data to abolish the effect of the fast initial phase characteristic of avidin-BF560-biotin interaction (FIG. 9). The fraction of fluorescent biotin released after one-hour was determined, as well as the times of half-maximal (t½) and quarter-maximal (t¼) release. For dual chain avidins with modified binding sites, it was hypothesized that 50% of the binding sites would behave like those of wt avidin (cpAvd5S4 binding site of dcAvd was not modified). The dissociation data measured for wt avidin divided by two was subtracted from the data measured for the modified dual chain avidins and the dissociation curve was fitted to the difference as above.

The nature of data set [2]: SDS-PAGE-based thermal stability assay. In kind it is physicochemical. As to conditions: Table 5; for SDS-PAGE stability assay Tr (+)biotin: with biotin. The protocol: Thermal stability of the mutants was studied by using a SDS-PAGE-based method essentially as described in detail by Bayer et al. (Bayer, E. A. et al. Electrophoresis 17, 1319-1324 (1996)). Briefly, the protein sample in the absence or presence of biotin was diluted to a final concentration of 0.2 mg/mil in 50 mM Na-carbonate buffer, and the proteins were acetylated by adding acetyl NHS ester. Equal amount of SDS-PAGE sample buffer was added to each sample and the protein was incubated at different temperatures (between 25-100° C.) for 20 minutes. After that the samples were subjected to SDS-PAGE analysis and the gel was finally stained with Coomassie brilliant blue. Dissociation of the proteins into their subunits was observed from the gels and the transition temperatures, wherein half of the protein was (pseudo-)tetrameric and half monomeric were determined.

Data set [3] can be described thus: Heat-induced unfolding by DSC. In kind it is physicochemical. As to conditions: for ΔTm: change in Tm upon addition of a three-fold molar excess of biotin; for DSC Tm (+)biotin: three-fold molar excess of biotin; for DSC Tm (−)biotin: without biotin. For orientation: DSC measures the heat that a sample takes up or gives off during a temperature scan.

Broadly, the ΔTm is the change in melting temperature against a reference sample. In the case of “Avd(S16A): avidin mutant S16A in all four subunits”, in data set [1], the “Release 1 h” value was 74.5%, the “t1/4 (time point of 25% release)” value was determined as 621 s and the kdiss amounted to 0.00036 s⁻¹. Also, the “SDS-PAGE stability assay Tr (−)biotin” value in data set [2] (transition midpoint of oligomeric disassembly, without biotin) came to 55 °C. In addition, the “SDS-PAGE stability assay Tr (+)biotin” value in data set [2] was found to be 80 °C. In addition, in data set [3], the thermal shift (ΔTm) came out at 30.3 °C, the “DSC Tm (+)biotin” value worked out at 114.6 ± 0.2 °C and the “DSC Tm (−)biotin” value amounted to 84.3 ± 0.3 °C.

Turning to “Avd(Y33H): avidin with four identically mutagenised (Y33H) subunits (Marttila et al. 2003) [reference compound]”, the “dissociation of biotin-coupled fluorescent probe with excess unlabeled biotin” value in data set [1] (5 μM free biotin, 3600 sec, 23±0.5° C.) was “rapid and complete dissociation”. For the same substance, in data set [1], the “Release 1 h” value amounted to 99.2%, the “t1/4 (time point of 25% release)” value is on record as 149 s and the kdiss came to 0.0011 s⁻¹. Moreover, the “SDS-PAGE stability assay Tr (+)biotin” value in data set [2] stood at 75 °C. Also, in data set [3], the ΔTm was found to be 33.3 °C, the “DSC Tm (+)biotin” value is 106.3 °C and the “DSC Tm (−)biotin” value stood at 73.0 °C.
